Columns and labels:
[1] = target: recombinant soluble human FcRn with β2-microglobulin (sFcRn) (human) (UniProt P55899); assay: SPR; pH 6.0
[2] = target: recombinant soluble human FcRn with β2-microglobulin (sFcRn) (human) (UniProt P55899); assay: SPR; pH 7.4

UniProt P55899, sequence (P55899 24-297, chain 1 of 2): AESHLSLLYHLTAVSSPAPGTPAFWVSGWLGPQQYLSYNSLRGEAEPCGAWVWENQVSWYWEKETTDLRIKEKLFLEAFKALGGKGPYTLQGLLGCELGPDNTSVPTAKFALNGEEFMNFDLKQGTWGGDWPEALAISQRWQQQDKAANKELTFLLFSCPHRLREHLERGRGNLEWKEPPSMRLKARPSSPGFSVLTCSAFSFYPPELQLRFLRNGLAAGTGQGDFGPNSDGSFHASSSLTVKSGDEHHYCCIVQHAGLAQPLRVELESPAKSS
UniProt P55899, sequence (partner, as listed by the source, chain 2 of 2): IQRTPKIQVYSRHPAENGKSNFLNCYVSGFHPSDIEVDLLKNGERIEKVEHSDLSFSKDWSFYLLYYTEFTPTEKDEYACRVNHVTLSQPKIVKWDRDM

“anti-biotin IgG1-MST-HN (from UniProt P01857)” showed a Kd [1] of 8 nM and a Kd [2] of 893 nM.
“anti-biotin IgG1-WT (from UniProt P01857)” was tested, and the Kd [1] was 59.3 nM.

— publication PMC8741920
